These results are taken from a protein production outcome set (Wang et al. 2014).

This series in a line: label from the status in PepcDB records.

For “MQMKKDFGYIRVGVASCELKVANPNYNVKSIISIMKKAYRRHHIKVLVFPELCVTGYTCGDLFNQNLLIKRAENELNNLLVSTSNINMITAVGMPVKADNQLFNCAVIINNGNILGVVPKTFIPTYNEFYEKRNFAGAISRISDEIILCGKKVPFGENLLFKDIYSELCIGIDICEDLWVNIPPSSYHTLNGANLILNLSASDEIVAKSDYRRDLVRLQSAKCITSYAYASSGQTESTSDLVFSGHSIIADNGSILKDIKFEEASYVKYADVDIEKLISDRIKFNTYMGRIEDKEYRTINFHLGYNENMHLERYVEASPFVPSNKSKRNIRCREILDLQASGLYQRLNKTGINKAVVGISGGLDSTLALLVIVEAFKKLKAPMKNIIGITMPGFGTTRRTYNNAVELMKKLGITIKEISIKKACIQHFNDIGQDLNTHDTIYENSQARERTQILMDIANKEGAIVVGTGDLSELALGWCTYNGDQMSMYGVNSSIPKTLVKYLIMWYAEASKDNDIRNILLDIYNTPVSPELLPPDKEGNIKQKTEDLIGSYELNDFFLYNMLRSGYEPLKILYLANIAFKDKYSEDVIHSALKNFYKRFFTQQFKRNCMPDGVKIGSVSLSPRGDLRMPSDASYGLWMDEL”, the protein production result is “failed”.
For “MQMLRNLSTRTRSRRGGYERVSDDSTFSLLGAKLRRSTSVPYYAPSIRLGGDFPVILEKLPRQKPTKTVVTSKLSHPIFSLFDGYRRHNKKKATAKPEFSRYHEYLKESGMWDLRSNSPVIYFK”, the protein production result is on record as “failed”.
Turning to “MQNIARNISNRLAGFVYRQMRKAHANANSTVGYSVNANGALLAGCVIDCRSGKSDGRVFFGKDSVLSCRIVLERDVGTVHIGNDSYVGGSQIICADHIEIGNNVLISWGCTIVDHDSHSVDWRNRAEDVRKWREGLLSGGLEKASESKDWAVVEKAPIKIGDKTWLGMNVTVLKGITIGEGAVVAAGSVVTKDVDPWTLVAGNPARVIKELPKS”, the protein production entry is recorded as “failed”.
With “MQNMFDGVQLFVEVVEAGGFAKAGKRLSLTRSTIGKAIARLEMRLGVQLFQRTTRVQSLTEDGQQYYERCLRAIKELRAGEAMLEQGRREVAGRLHVSLPVLFGRQCVAPILRTYAREHPQLELELNFSDHHVDLIADGFDLAVRNGPLGNGTTLRARRLGNQRKILCASPTYLAARGKPHTLADLADHDLLTYCRNDRNMAWTLPDATGALVDIPITSRLRCNDLEVIADTAVDGMGVAWLPYWLLMERMQRGELIGIWGDRPSAVIECHVVWPAAQHVPLRSRLAINLLAAELPKYLEA” the entry was “failed”; with “MQNPRRICVADPNHRLSQKRFTRNSRDIFICPDCGCIMADVDFDHDQYESGDYYTMQHKTVQSIEEVWGFRWRYILDQILKINGRSSLLDVGAGNGYFVALASREFSFDASGLEISQEEVQFAADVLNIGLIREDLTQHNLDYDVVTCLNVLEHVVDPQLFLSHLVNRVKPGGLLVITTPNPACIHRKVKGLKNWNMIAPPHHINLFTKESLYILLMRYGLIQLDYQTISTYVNFVRGFDTENLLLRRLFFNLLKIFDLGADHFFIVKKPSQC”, “failed”.
With “MQNQYFTVQENYKERFYQIPKVFFTSENYKNLTNDMKIAYAILRDRLNLSIKNSWVDEDGNIYFVYSNEKLMEILNCKKEKLTKIKKGL” the entry was “failed”.
With “MQNSIYKQFWKYTIPTVAAMLVNGLYQVVDGIFIGRYVGADGLAGINVAWPVIGSILGIGMMVGVGTGALTSIKQGEQDQQGAKRVLTTGLLFLLALMPIVATILFFFADDFIRWQGAQERVYELGLQYLQILIVACIFSLGSIAVPFLLRNDNSPNLATILMVIGAIINIVLDYVFIAWMNWELTGAAIATALAQMVVTVLGVGYFFSSKAKLRLTFRELKVQLDAIPKIVLIGTSSFFMYAYGSTMVALHNALFAQYGSPLLIGAYAILGYIVTVYYLVAEGIANGMQPLVSYNHGARNQDNIRKLLQIAMGTSVLGGVVFVVLMNLFPYQLVSVFNDADQQLIESAVMGIRLHMFALFMDGFLVVAGAYYQSVNKGSKAMFVTVGNMLIQLPFLFIMPKLLGVTGIWIAFPLSNIALSLVVMSMLWRDIKKLMVDSPVEPSIQAS” the entry was “not failed”; with “MQPFLFSDSSACLHVSPAMKISVIIPVYNDPSGIDATLRSVMEQDHSDYEVIPVDNNSTDRTPAVIREWAHQYPNRIRPASEHDTQSSYAARNAGIEAAQGEILVFIDADMAAPSYWLTDVHEAFSASEADYLGYEVDVYVPEDEAGFWGWYDTVMGLPSRYHYDEKQFVPTSCLAVRRAVFEKVGRFDETAVSGGDKEFGERVHRHPDLTTAFRDDIVVCHPARTTFEAHRAKALRVGRGLARLCDPSTASGDTTSVLIELLLHAVPPDPRRVAEQAHDVPAHQFLRLYIADWILRYLRLYGALTYCRKEAPE”, “failed”; with “MQPFVYMAAPARIVFSAGSSADVAEEIRRLGLSRALVLSTPQQKGDAEALASRLGRLAAGVFSEAAMHTPVEVTKTAVEAYRAAGADCVVSLGGGSTTGLGKAIALRTDAAQIVIPTTYAGSEVTPILGQTENGVKTTMRGPEILPEVVIYDAELTLGLPVAISMTSGLNAMAHAAEALYARDRNPIASMMAVEGLRAMIEALPVVRQAPHDIGARETALYGAWLCGTVLGAVGMSLHHKLCHTLGGSLDLPHAETHAVLLPHTIAYVEEAAPNLLAPLAALVGGRAGAGLFDFAARLGAPSSLAALGVGADDLDPMAELATANPYWCPRPIEKTAIRDLLQRAFEGARPA”, “not failed”.
In the case of “MQPRFLGQLGLADVVTVANAALGFIAAAVAVFDTELAARLILLAAIADGLDGVIARFRGGTPVGPILDSLADVASFGVAPAVLVYALASGGEVTLDEPLAVAAVVVAALYVAMAVVRLGFYLLEDDGAPETVGVQTTLAATVLSVLHLAGVTDPAVFVAATAAFAYLMVASITYPELYARDALILGGLQACVVLFPTAFGRAFPRVLLVFALGYLLLAPVAYWRSTEGKRS”, the protein production result is recorded as “failed”.
With “MQPTGNQIQQNQQQQQQLIMRVPKQEVSVSGAARRYVQQAPPNRPPRQNHQNGAIGGKKSSVTIQEVPNNAYLETLNKSGNNKVDDDKLPVFLIKLWNIVEDPNLQSIVHWDDSGASFHISDPYLFGRNVLPHFFKHNNMNSMVRQLNMYGFRKMTPLSQGGLTRTESDQDHLEFSHPCFVQGRPELLSQIKRKQSARTVEDKQVNEQTQQNLEVVMAEMRAMREKAKNMEDKMNKLTKENRDMWTQMGSMRQQHARQQQYFKKLLHFLVSVMQPGLSKRVAKRGVLEIDFCAANGTAGPNSKRARMNSEEGPYKDVCDLLESLQRETQEPFSRRFTNNEGPLISEVTDEFGNSPVGRGSAQDLFGDTFGAQSSRYSDGGATSSREQSPHPIISQPQSNSAGAHGANEQKPDDMYMGSGPLTHENIHRGISALKRDYQGASPASGGPSTSSSAPSGAGAGARMAQKRAAPYKNATRQMAQPQQDYSGGFVNNYSGFMPSDPSMIPYQPSHQYLQPHQKLMAIEDQHHPTTSTSSTNADPHQNLYSPTLGLSPSFDRQLSQELQEYFTGTDTSLESFRDLVSNHNWDDFGNNVPLDDDEEGSEDPLRQLALENAPETSNYDGAEDLLFDNEQQYPENGFDVPDPNYLPLADEEIFPHSPALRTPSPSDPNLV” the entry was “not failed”.
As for “MQRANREHLEIISLEEISMLVSSDFDLPEVLQHVTAKVATQLKVSVCNIYLREGDEVVLAATHGFDPAFIGKIRIKIGDGITGSVARDGQYISLSRASQDPRYRYFPELQEEKYNSMLSFPIGDKKEVYGVINLNTTSIRSFHEDEIYFVSIIANLILTAIKLRQQVASSRKAAEA”, the protein production result is “not failed”.
Turning to “MQRCLRIQVARRHKLRNGKILDLGQQPTAPLLSLYLSTAQSRVISNEEPASISWSCAEAGSALGLSSASGSAEEAEPWPGVRRGTEAGQYEFARAGEAAAAVRAAAAVAVARAGMRRYLRVVGLCLACGFCSLLYAFSQLAVSLEEGAAVGRRPQAAVASWLADGGRGTGRGAGSAGPGRTGRCKEVSLSYWNPYWMLPSDVCGVNCFWEAAFRYGLKTRPTEKMHLAVVACGDRLEETVTMLKSALIFSIKPLHVHIFAEDQLHDSFKDRLDSWSFLQRFNYSLYPITFPSDSAMEWKKLFKPCASQRLFLPLILKGVDSLLYVDTDVLFLRPVDDIWSLLERFNSTQIAAMAPEHEEPRVGWYNRFARHPYYGRTGVNSGVMLMNMTRMRRKYFKNDMTTARLQWGDILMPLLKKYKLNITWGDQDLLNIMFYHNPESLFVFPCQWNYRPDHCIYGSNCREAEEEGVFILHGNRGVYHDDKQPAFRAMYEALRNCSLEDDSVRSLLKPLELELQKTVHTYCGKTYKIFIKQLAKSIRNRYDTPPKER”, the protein production entry is listed as “failed”.
With “MQRFALIGAGFIGGVHGDNLAAHPDVDLALVFDIDLARATDLAKRHGSRATTDLAEVFDPTAIDAVFIASSSNTHAEHLRAAATAGIPALCEKPIDLDLAHAVDIVRFAETRSLRAMVDFNRRFDRDYAELQRVVASGEIGSVELIQMTSRGPAMPPLEYIAVSGGQMRDQTVHFFDLARWISGLDPESVFATGSTLAEPRLAEYGDVDTSAVTLRLPGGALVQIDCTRRIGYGYDERIEVLGSTGMVEARRQRAGSVSRYSAGRVVDDGLHAGWFERIRGSYRTALDHFVDALENGAAIGPTLAEGLKAQAIAEAATRSLTSGRMEPIEYPA” the entry was “failed”.
With “MQRTLDITQAMIDGYGRINGDNDIIHYDHDYAVQRGFRGTLLHGPHMTALAADLGARRYASDWLYRGKLHTKWIGPVCPGDTFVAALNEQGEIEAVSGGKTVMVGSASLAD” the entry was “failed”; with “MQRVAQWAADVPEETLNLLELSQVAGVSLRQLQSAFKAFTGMAPSQWLRLRRLNSAHRELLSRGPTETTVAEVAMHWSFWHLGRFSSSYRALFKELPSQTLKRSAVARR”, “failed”; with “MQSAYSFLPQVIAHRGSSGQAPENTLASLHLAGQQGIKWVEIDVMLSGDGIPVIFHDDYLSRTTDGDGLIYKTPLAELKQLDAGSWKGQEYQQETIPTLLEAIEVISQYGMGLNLELKPCEGLEEETIAASVEVLKQHWPQDLPLLFSSFNYFALVSAKALWPEIARGYNVSAIPSAWQERLEHLDCAGLHIHQSFFDVQQVSDIKAAGYKVLAFTINDESLALKLYNQGLDAVFSDYPQKIQSAIDSHIN”, “not failed”.
With “MQSLGSLAKNIKPNQNIVEEEHNLKCERCGNTYDYYKFSNGKEFRHGCDCSMIAAGKEAEQQRKQKYLNRIFNQSNVNASLRDATVNSYQPQNDHQVHAKSTAIEYVKGFSVDKPKSLILQGSYGTGKSHLAYAVAKAIKQQGYSVAFMHIPMLMERIKATYNRNATETTDELVQLLSSIDLLVLDDVGVENTEHTLNKLFSIVDNRVGKNNIFTTNFSDKELNQNMNWQRINSRMKQNARTVRVLGDDFRGRDAW” the entry was “failed”.
“MQSSAVFPLSPLIPLLQQRRLSLRHHPITAASSSDLNMSPNKPTPYVLSAIVPIVGGVALASISEVSFNWAGFSSAMASNLTNQSPNNYIFEF”: the protein production entry is on record as “failed”.
With “MQSSNDPPRGAGGGPECAADHRAVPGRTYVETGQGAGYDGPRYDDPWYDALASGWGESAGPAAPGPTVPPMRRSAPAEPPRAAADVYLEVQRSAAFQEVRSRYRRFVVPAVAGFFLWYVAYVVAATSAPALMARPVAGAVNVAMVAGLGQFLTTFLLTWAYARHARLRRDRAALELRWDTQELTRGVRGDAS” the entry was “failed”; with “MQTNEHEHVIEVTDLRRVYGGGFEAVRGIDFSVRRGEVFALLGTNGAGKTSTVELLEGLAAPAGGRVRVLGHDPYTERAAVRPRTGVMLQEGGFPSELTVAETARMWAGCVSGARPPAEVLALVGLEAKSGTRVKQLSGGQRRRLDLALALLGDPEVLFLDEPSTGLDAEGRRDTWELVGALRDQGTTVLLTTHYLEEAEHLADRLAIMHDGRIAATGTPAEVTAAQPSHISFELPDGYFVGDLPPLAELGVSDHETDGRTVKLRTRELQRAATGLLVWAAQAAVELRRLDVRSASLEEAFLSIAKQVSARSDGTATDTTEKEYAA”, “failed”.
